Measured values as given in patent publication US9957297B2, “Template-fixed peptidomimetics as inhibitors of FPR1” (POLYPHOR AG, priority 2011, dated 2018).
*1 amine or outer side, *2 acyl side, *3 side chain or, on linkers, in order; H or OH if unused. Where a SMILES comes first, the peptide text is derived from it. Bridges are numbered along the chain shown (N, C = ends). [ ]: non-standard residue; d: D form. Pro(trans-4-NH2) = O=C([C@@H]1C[C@@H](N[*:3])CN1[*:1])[*:2]; Trp(5-OH) = N[C@@H](Cc1c[nH]c2ccc(O)cc12)C(=O)O; Oic = O=C(O)[C@@H]1C[C@@H]2CCCC[C@@H]2N1; Pro(4R-NH2) = N[C@H]1CN[C@H](C(=O)O)C1; d(cisHyp) = O=C(O)[C@H]1C[C@@H](O)CN1; Hyp = O=C(O)[C@@H]1C[C@@H](O)CN1; Tic = O=C(O)[C@@H]1Cc2ccccc2CN1; Pip = O=C(O)[C@@H]1CCCCN1; Dab = NCC[C@H](N)C(=O)O

T1: Formyl-Peptide Receptor 1 (UniProt P21462 1-350, limits assumed)
T1 sequence (looked up): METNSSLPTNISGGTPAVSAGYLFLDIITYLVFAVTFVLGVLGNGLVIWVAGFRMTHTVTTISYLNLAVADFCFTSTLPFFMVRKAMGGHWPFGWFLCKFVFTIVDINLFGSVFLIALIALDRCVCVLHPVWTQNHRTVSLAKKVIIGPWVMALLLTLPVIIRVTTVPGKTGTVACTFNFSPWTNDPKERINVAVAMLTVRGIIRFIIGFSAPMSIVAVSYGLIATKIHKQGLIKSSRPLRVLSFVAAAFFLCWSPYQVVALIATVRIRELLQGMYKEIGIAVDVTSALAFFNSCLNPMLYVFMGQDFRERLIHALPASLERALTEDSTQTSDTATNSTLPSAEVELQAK

T2: FPR1 (Homo sapiens, UniProt P21462)
T2 construct: host or cells: CHO (PathHunter CHO-FPR1 β-arrestin cells)
T2 sequence (P21462 1-350): T1 sequence (looked up)

B1: cyclo(-Tyr-His-Lys-Cys-His-Gly-^DPro-Trp-Thr-Ile-Cys-Tyr-Glu-Lys-^DPro-Pro((4R)NH2)-) (peptide)
peptide: cyclo(YHKCHG[dP]WTICYEK[dP][Pro(trans-4-NH2)])
modifications: disulfide 4-11
SMILES: CC[C@H](C)[C@@H]1NC(=O)[C@H]([C@@H](C)O)NC(=O)[C@H](Cc2c[nH]c3ccccc23)NC(=O)[C@H]2CCCN2C(=O)CNC(=O)[C@H](Cc2c[nH]cn2)NC(=O)[C@@H]2CSSC[C@H](NC1=O)C(=O)N[C@@H](Cc1ccc(O)cc1)C(=O)N[C@@H](CCC(=O)O)C(=O)N[C@@H](CCCCN)C(=O)N1CCC[C@@H]1C(=O)N1C[C@H](N)C[C@H]1C(=O)N[C@@H](Cc1ccc(O)cc1)C(=O)N[C@@H](Cc1c[nH]cn1)C(=O)N[C@@H](CCCCN)C(=O)N2
B2: cyclo(-Tyr-His-Lys-Cys-His-Gly-^DPro-Trp-Thr-Ile-Cys-Tyr-Glu-Lys-^DPro-Tic-) (peptide)
peptide: cyclo(YHKCHG[dP]WTICYEK[dP][Tic])
modifications: disulfide 4-11
B3: cyclo(-Tyr-His-Lys-Cys-His-Gly-^DPro-Trp-Thr-Ile-Cys-Tyr-Glu-Lys-^DPro-Oic-) (peptide)
peptide: cyclo(YHKCHG[dP]WTICYEK[dP][Oic])
modifications: disulfide 4-11
B4: cyclo(-Tyr-His-Lys-Cys-His-Gly-^DPro-Trp-Thr-Ile-Cys-Tyr-Glu-Lys-^DPro-Dab-) (peptide)
peptide: cyclo(YHKCHG[dP]WTICYEK[dP][Dab])
modifications: disulfide 4-11
SMILES: CC[C@H](C)[C@@H]1NC(=O)[C@H]([C@@H](C)O)NC(=O)[C@H](Cc2c[nH]c3ccccc23)NC(=O)[C@H]2CCCN2C(=O)CNC(=O)[C@H](Cc2c[nH]cn2)NC(=O)[C@@H]2CSSC[C@H](NC1=O)C(=O)N[C@@H](Cc1ccc(O)cc1)C(=O)N[C@@H](CCC(=O)O)C(=O)N[C@@H](CCCCN)C(=O)N1CCC[C@@H]1C(=O)N[C@@H](CCN)C(=O)N[C@@H](Cc1ccc(O)cc1)C(=O)N[C@@H](Cc1c[nH]cn1)C(=O)N[C@@H](CCCCN)C(=O)N2
B5: cyclo(-Tyr-His-Lys-Cys-Trp(5OH)-Gly-^DPro-Trp-Thr-Ile-Cys-Tyr-Glu-Lys-^DPro-Pro-) (peptide)
peptide: cyclo(YHKC[Trp(5-OH)]G[dP]WTICYEK[dP]P)
modifications: disulfide 4-11
B6: cyclo(-Tyr-His-Lys-Cys-His-Gly-^DPro-Trp-Thr-Ile-Cys-Tyr-Glu-Lys-^DPro-Lys-) (peptide)
peptide: cyclo(YHKCHG[dP]WTICYEK[dP]K)
modifications: disulfide 4-11
SMILES: CC[C@H](C)[C@@H]1NC(=O)[C@H]([C@@H](C)O)NC(=O)[C@H](Cc2c[nH]c3ccccc23)NC(=O)[C@H]2CCCN2C(=O)CNC(=O)[C@H](Cc2c[nH]cn2)NC(=O)[C@@H]2CSSC[C@H](NC1=O)C(=O)N[C@@H](Cc1ccc(O)cc1)C(=O)N[C@@H](CCC(=O)O)C(=O)N[C@@H](CCCCN)C(=O)N1CCC[C@@H]1C(=O)N[C@@H](CCCCN)C(=O)N[C@@H](Cc1ccc(O)cc1)C(=O)N[C@@H](Cc1c[nH]cn1)C(=O)N[C@@H](CCCCN)C(=O)N2
B7: cyclo(-Tyr-His-Lys-Cys-His-Gly-^DPro-Trp-Thr-Ile-Cys-Tyr-Glu-Lys-^DPro-Pro((4R)OH)-) (peptide)
peptide: cyclo(YHKCHG[dP]WTICYEK[dP][Hyp])
modifications: disulfide 4-11
B8: cyclo(-Tyr-His-Lys-Cys-Trp-Gly-^DPro-Trp-Thr-Ile-Cys-Tyr-Glu-Lys-^DPro-Lys-) (peptide)
peptide: cyclo(YHKCWG[dP]WTICYEK[dP]K)
modifications: disulfide 4-11
SMILES: CC[C@H](C)[C@@H]1NC(=O)[C@H]([C@@H](C)O)NC(=O)[C@H](Cc2c[nH]c3ccccc23)NC(=O)[C@H]2CCCN2C(=O)CNC(=O)[C@H](Cc2c[nH]c3ccccc23)NC(=O)[C@@H]2CSSC[C@H](NC1=O)C(=O)N[C@@H](Cc1ccc(O)cc1)C(=O)N[C@@H](CCC(=O)O)C(=O)N[C@@H](CCCCN)C(=O)N1CCC[C@@H]1C(=O)N[C@@H](CCCCN)C(=O)N[C@@H](Cc1ccc(O)cc1)C(=O)N[C@@H](Cc1c[nH]cn1)C(=O)N[C@@H](CCCCN)C(=O)N2
B9: cyclo(-Tyr-His-Lys-Cys-His-Gly-^DPro-Trp-Thr-Ile-Cys-Tyr-Glu-Lys-^DPro-Pip-) (peptide)
peptide: cyclo(YHKCHG[dP]WTICYEK[dP][Pip])
modifications: disulfide 4-11
B10: cyclo(-Tyr-His-Lys-Cys-His-Gly-^DPro((4R)OH)-Trp-Thr-Ile-Cys-Tyr-Glu-Lys-^DPro-Pro-) (peptide)
peptide: cyclo(YHKCHG[d(cisHyp)]WTICYEK[dP]P)
modifications: disulfide 4-11
B11: cyclo(-Tyr-His-Ala-Cys-Trp-Gly-^DPro-Trp-Thr-Ile-Cys-Tyr-Gln-Lys-^DPro-Ala-) (peptide)
peptide: cyclo(YHACWG[dP]WTICYQK[dP]A)
modifications: disulfide 4-11
SMILES: CC[C@H](C)[C@@H]1NC(=O)[C@H]([C@@H](C)O)NC(=O)[C@H](Cc2c[nH]c3ccccc23)NC(=O)[C@H]2CCCN2C(=O)CNC(=O)[C@H](Cc2c[nH]c3ccccc23)NC(=O)[C@@H]2CSSC[C@H](NC1=O)C(=O)N[C@@H](Cc1ccc(O)cc1)C(=O)N[C@@H](CCC(N)=O)C(=O)N[C@@H](CCCCN)C(=O)N1CCC[C@@H]1C(=O)N[C@@H](C)C(=O)N[C@@H](Cc1ccc(O)cc1)C(=O)N[C@@H](Cc1c[nH]cn1)C(=O)N[C@@H](C)C(=O)N2

What follows are molecules tested against T1, Formyl-Peptide Receptor 1 (assay: cell-based or functional assay). Settings: not given.

Row | β-Arrestin IC50 | Molecule
1 | 0.082 µM | B1
2 | 0.115 µM | B2
3 | 0.267 µM | B3
4 | 0.189 µM | B4
5 | 0.013 µM | B5
6 | 0.109 µM | B6
7 | 0.376 µM | B7
8 | 0.054 µM | B8
9 | 0.161 µM | B9
10 | 0.485 µM | B10
11 | 0.188 µM | B11

The molecules below were run against T2, FPR1 (assay: FPR1 β-arrestin recruitment assay (PathHunter CHO-FPR1, antagonistic mode)). Settings: CHO FPR1 β-arrestin cells; antagonistic assay vs reference agonist fMLF at its EC80; 60 min preincubation.
Assay type: cell-based
Experimental: 2.2 FPR1 β-Arrestin Recruitment Assay
The PathHunter CHO—FPR1 (DiscoverX) assay was performed according to the manufacturer's protocol. In brief, CHO FPR1 β-arrestin cells were seeded at a density of 9000 cells per well in 20 μl of Ham's F12 medium (Invitrogen) in black 384-well culture plates and incubated overnight at 37° C. in a humidified atmosphere with 5% CO2. The next day, serial dilutions of the β-hairpin peptidomimetics of this invention have been prepared in DMSO and subsequently diluted in HBSS buffer supplemented with 20 mM Hepes and 0.1% BSA.
For antagonistic assay, 5 μl of compound solution or buffer was added to the cells with a final DMSO concentration of 0.5% (v/v). The plate was incubated for 60 min at 37° C. with 5% CO2 before addition of […] of the reference agonist fMLF peptide (Sigma-Aldrich) at its EC80 concentration. After 90 min of incubation at 37° C. with 5% CO2, 15 μl of beta-Glo detection reagent (Promega) were added. Reaction was developed for 20 min at room temperature and chemiluminescence was measured with a Victor2V (Perkin Elmer) luminescence reader.

Row | IC50 | Molecule
12 | 0.126 ± 0.053 µM | CC[C@H](C)[C@@H]1NC(=O)[C@H]([C@@H](C)O)NC(=O)[C@H](Cc2c[nH]c3ccccc23)NC(=O)[C@H]2CCCN2C(=O)CNC(=O)[C@H](Cc2c[nH]c3ccccc23)NC(=O)[C@@H]2CSSC[C@H](NC1=O)C(=O)N[C@@H](Cc1ccc(O)cc1)C(=O)N[C@@H](CCC(=O)O)C(=O)N[C@@H](CCCCN)C(=O)N[C@H](CCCCN)C(=O)N1CCC[C@H]1C(=O)N[C@@H](Cc1ccc(O)cc1)C(=O)N[C@@H](Cc1c[nH]cn1)C(=O)N[C@@H](CCCCN)C(=O)N2 [compound 43, cyclo(-Tyr-His-Lys-Cys-Trp-Gly-^DPro-Trp-Thr-Ile-Cys-Tyr-Glu-Lys-^DLys-Pro-)] (cyclo(YHKCWG[dP]WTICYEK[dK]P); disulfide 4-11)
13 | 0.082 ± 0.029 µM | CC[C@H](C)[C@@H]1NC(=O)[C@H]([C@@H](C)O)NC(=O)[C@H](Cc2c[nH]c3ccccc23)NC(=O)[C@H]2CCCN2C(=O)CNC(=O)[C@H](Cc2c[nH]cn2)NC(=O)[C@@H]2CSSC[C@H](NC1=O)C(=O)N[C@@H](Cc1ccc(O)cc1)C(=O)N[C@@H](CCC(=O)O)C(=O)N[C@@H](CCN)C(=O)N1CCC[C@@H]1C(=O)N1CCC[C@H]1C(=O)N[C@@H](Cc1ccc(O)cc1)C(=O)N[C@@H](Cc1c[nH]cn1)C(=O)N[C@@H](CCCCN)C(=O)N2 [compound 56, cyclo(-Tyr-His-Lys-Cys-His-Gly-^DPro-Trp-Thr-Ile-Cys-Tyr-Glu-Dab-^DPro-Pro-)] (cyclo(YHKCHG[dP]WTICYE[Dab][dP]P); disulfide 4-11)
14 | 0.189 ± 0.079 µM | CC[C@H](C)[C@@H]1NC(=O)[C@H]([C@@H](C)O)NC(=O)[C@H](Cc2c[nH]c3ccccc23)NC(=O)[C@H]2CCCN2C(=O)CNC(=O)[C@H](Cc2c[nH]cn2)NC(=O)[C@@H]2CSSC[C@H](NC1=O)C(=O)N[C@@H](Cc1ccc(O)cc1)C(=O)N[C@@H](CCC(=O)O)C(=O)N[C@@H](CCCCN)C(=O)N1CCC[C@@H]1C(=O)N1CCC[C@H]1C(=O)N[C@@H](Cc1ccc(O)cc1)C(=O)N[C@@H](Cc1c[nH]cn1)C(=O)N[C@@H](C)C(=O)N2 [compound 30, cyclo(-Tyr-His-Ala-Cys-His-Gly-^DPro-Trp-Thr-Ile-Cys-Tyr-Glu-Lys-^DPro-Pro-)] (cyclo(YHACHG[dP]WTICYEK[dP]P); disulfide 4-11)
15 | 0.082 ± 0.051 µM | CC[C@H](C)[C@@H]1NC(=O)[C@H]([C@@H](C)O)NC(=O)[C@H](Cc2c[nH]c3ccccc23)NC(=O)[C@H]2CCCN2C(=O)CNC(=O)[C@H](Cc2c[nH]cn2)NC(=O)[C@@H]2CSSC[C@H](NC1=O)C(=O)N[C@@H](Cc1ccc(O)cc1)C(=O)N[C@@H](CCC(=O)O)C(=O)N[C@@H](CCCCN)C(=O)N1CCC[C@@H]1C(=O)N1C[C@H](N)C[C@H]1C(=O)N[C@@H](Cc1ccc(O)cc1)C(=O)N[C@@H](Cc1c[nH]cn1)C(=O)N[C@@H](CCCCN)C(=O)N2 [compound 83, cyclo(-Tyr-His-Lys-Cys-His-Gly-^DPro-Trp-Thr-IIe-Cys-Tyr-Glu-Lys-^DPro-Pro((4R)NH2)-)] (cyclo(YHKCHG[dP]WTICYEK[dP][Pro(4R-NH2)]); disulfide 4-11)
16 | 0.177 ± 0.121 µM | CC[C@H](C)[C@@H]1NC(=O)[C@H]([C@@H](C)O)NC(=O)[C@H](Cc2c[nH]c3ccccc23)NC(=O)[C@H]2CCCN2C(=O)CNC(=O)[C@H](Cc2c[nH]cn2)NC(=O)[C@@H]2CSSC[C@H](NC1=O)C(=O)N[C@@H](Cc1ccc(O)cc1)C(=O)N[C@@H](CCC(N)=O)C(=O)N[C@@H](CCCCN)C(=O)N1CCC[C@@H]1C(=O)N1CCC[C@H]1C(=O)N[C@@H](Cc1ccc(O)cc1)C(=O)N[C@@H](Cc1c[nH]cn1)C(=O)N[C@@H](Cc1c[nH]c3ccccc13)C(=O)N2 [Ex. 11, cyclo(-Tyr-His-Trp-Cys-His-Gly-^DPro-Trp-Thr-Ile-Cys-Tyr-Gln-Lys-^DPro-Pro-)] (cyclo(YHWCHG[dP]WTICYQK[dP]P); disulfide 4-11)
